The values below come from PMC3198853.

In this experiment the target is LDLRs. The experiment is described as follows: SPR.

One may read the Kd as the equilibrium constant for the complex coming apart. Low readings indicate tighter binding, high ones weaker binding. In turn, “Tissue-type plasminogen activator (recombinant human tPA, Actilyse) (enzyme)” came in with a Kd of 330 nM.
